Measurements from US20230183713A1, “SITE-SPECIFIC RECOMBINASES FOR EFFICIENT AND SPECIFIC GENOME EDITING” (TECHNISCHE UNIVERSITÄt DRESDEN, published 2023).
Where a chain is given by its changes, count along the chain named. Names and notes keep the numbering of the source.

Tests used:
[1] = molecular target: T1, Cre recombinase monomer with W315N mutation
T1 chain: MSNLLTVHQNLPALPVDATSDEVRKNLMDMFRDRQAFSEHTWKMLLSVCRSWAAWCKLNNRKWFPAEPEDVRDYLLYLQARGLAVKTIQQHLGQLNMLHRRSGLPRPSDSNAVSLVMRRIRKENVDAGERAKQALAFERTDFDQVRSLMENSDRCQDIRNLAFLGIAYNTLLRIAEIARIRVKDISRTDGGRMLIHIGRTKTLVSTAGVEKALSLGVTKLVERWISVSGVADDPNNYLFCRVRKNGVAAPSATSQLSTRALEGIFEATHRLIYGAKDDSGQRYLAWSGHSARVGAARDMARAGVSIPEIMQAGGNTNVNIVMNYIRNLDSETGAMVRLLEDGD

[2] = molecular target: T2, Cre recombinase monomer with Q311R mutation
T2 chain: T1 chain with Q311R, N315W

[3] = molecular target: T3, Cre recombinase monomer with K201N mutation
T3 chain: T1 chain with K201N, N315W

[4] = molecular target: T4, Cre recombinase monomer with K201R mutation
T4 chain: T1 chain with K201R, N315W

B1: Cre recombinase monomer with E129R mutation (protein)
chain: T1 chain with E129R, N315W
Median dimer activity (recombination on loxP) [1]: 30%
Median dimer activity (recombination on loxP) [2]: 93%
Median dimer activity (recombination on loxP) [3]: 35%
Median dimer activity (recombination on loxP) [4]: 26%
